Assay results: patent US20190194358A1 (ARIZONA BOARD OF REGENTS A BODY CORPORATE OF THE STATE OF …, published 2019)
Where two headings read alike, the source gives them in different places.

Legend:
[1] = target: T1, transferrin (human, UniProt P02787 20-698); assay: SPR (Biacore T100), transferrin immobilised, steady-state response
T1 construct: also called TRF; pooled human transferrin (Sigma)
Description: Flow rates and contact times are adjusted as necessary to provide the surface concentration of target desired for the intended application, and may vary by target. In general, for evaluating whether binding occurs, it is preferable to immobilize a relatively large quantity of target, and higher flow rates and/or longer contact times may be used. For determining kinetics, it is preferable to limit the amount of target immobilized so as to minimize rebinding and avidity effects, and lower flow rates and/or contact times may be used.
Because the off rates for these polypeptides were very high, KD values were estimated by measuring steady-state response for at least five concentrations in a two-fold dilution series, each concentration tested in duplicate. For each experiment, response data were processed using a reference surface to correct for bulk refractive index changes and any non-specific binding. Data were also double referenced using responses from blank running buffer injections. […] Analytes were injected for 60 s at a flow rate of 30 μl/min. The antigen surfaces were regenerated with 30 s consecutive pulses of NaOH/NaCl (50 mM NaOH in 1M NaCl) and Glycine (10 mM glycine-HCl, pH 2.5).

[2] = target: T1, transferrin; assay: peptide microarray with organic prewash, Alexa 555 transferrin with Alexa 647 E. coli lysate; rank by the score of Example 2
[3] = target: T1, transferrin; assay: peptide microarray without organic prewash, Alexa 555 transferrin with Alexa 647 E. coli lysate; rank by the score of Example 2
[4] = target: T1, transferrin; assay: affinity characterisation of Example 29 (SPR; format for the purified peptides not stated)
[5] = target: T2, Gal80 (UniProt P04387 1-435, limits assumed); assay: light-directed peptide array, 25 µM labelled GAL80 with 1 mg/mL E. coli lysate; relative to template BP2;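 also: array read-out by fluorescence scanning, library of 10,000 peptides varied at four positions with ten residue choices, each feature present in triplicate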
T2 construct: Cy3/Cy5 labelled on arrays, immobilised for SPR and ELISA
T2 sequence (looked up): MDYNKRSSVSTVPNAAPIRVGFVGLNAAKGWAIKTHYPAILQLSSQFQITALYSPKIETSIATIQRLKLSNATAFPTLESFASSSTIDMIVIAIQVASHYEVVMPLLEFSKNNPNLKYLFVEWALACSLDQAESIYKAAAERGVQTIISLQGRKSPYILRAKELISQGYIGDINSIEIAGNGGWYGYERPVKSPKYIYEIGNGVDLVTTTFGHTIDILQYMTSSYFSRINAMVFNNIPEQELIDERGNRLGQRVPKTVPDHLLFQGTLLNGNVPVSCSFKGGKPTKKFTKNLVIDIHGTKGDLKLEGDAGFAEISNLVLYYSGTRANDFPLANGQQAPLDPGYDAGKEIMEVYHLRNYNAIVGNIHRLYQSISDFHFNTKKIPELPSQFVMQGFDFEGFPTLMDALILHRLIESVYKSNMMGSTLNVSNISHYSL
Description: The chemically diverse set of 10 amino acids {I,D,W,L,E,G,T,S,K,R} were selected as the amino acids to substitute into the four variable positions for a total of 10,000 unique variant peptides. Three replicates were included in the array to produce a total of 30,000 array features. […] The resulting array was imaged using a commercial fluorescence scanner.

[6] = target: T3, Tumor Necrosis Factor-alpha (UniProt P01375 77-233); assay: SPR; reference TNF1 lead peptide
T3 construct: Immobilised on pipette tips or SPR chips (amine coupling or biotin capture); also called TNF-α; TNF-alpha
Protocol: (§1) Point-mutant libraries were prepared in 96-well stock plates From the stock plate, peptides were diluted to 50 μM concentration in Biacore HBS-EP buffer (GE Healthcare, Piscataway, N.J.) containing 1 mg/ml carboxymethyl-dextran (Sigma-Aldrich, St. Louis, Mo.) to reduce non-specific binding to the CM-5 SPR chip surface. TNF-αt was captured on a CM-5 chip surface at different capture levels on spots 1, 2, 4, and 5 across all four flow cells corresponding to a 40-200 RU range of predicted Rₘₐₓ binding responses. Spot 3 contained only immobilized neutravidin and served as a reference spot.
(§2) Purified point-mutant affinities were measured on the Biacore A100 using SPR equilibrium binding response across a series of peptide concentrations on an SPR chip with TNF-α captured as described above.

[7] = target: T3, Tumor Necrosis Factor-alpha; assay: SPR (Biacore A100), TNF-α captured, equilibrium response over a concentration series
Protocol: as §1, §2

[8] = target: T3, Tumor Necrosis Factor-alpha; assay: SPR; reference TNF1 lead peptide; remark: listed apart in the source
Protocol: as §1, §2

[9] = target: T3, Tumor Necrosis Factor-alpha; assay: SPR; difference to the TNF1 lead peptide
Protocol: as §1, §2

[10] = target: T3, Tumor Necrosis Factor-alpha; assay: SPR (Biacore A100) point-mutant screen at 50 µM peptide
Protocol: as §1
Using the prepared 96-well plates and Biacore A100 SPR instrument, four peptides were flowed separately, in parallel, through the four flow cells over all 4 TNF-α spots and the neutravidin reference spot, with a 60 second association phase and 300 second dissociation phase. SPR sensorgrams were recorded for each peptide response with all 4 TNF-α spots and the neutravidin reference spot across the four flow cells on the SPR chip. Surface regeneration was performed after every 12 injections in each flow cell with Biacore Glycine 2.5 regeneration solution (GE Healthcare, Piscataway, N.J.). Point-mutant reference subtracted, peptide molecular weight adjusted, responses at the late binding region of the sensorgram (a few seconds before dissociation) were compared to the response of the TNF1 lead

[11] = target: T3, Tumor Necrosis Factor-alpha; assay: SPR (Biacore A100), TNF-α captured, equilibrium response over a concentration series; remark: listed apart in the source
Protocol: as §1, §2

T1 sequence (P02787 20-698 limits assumed): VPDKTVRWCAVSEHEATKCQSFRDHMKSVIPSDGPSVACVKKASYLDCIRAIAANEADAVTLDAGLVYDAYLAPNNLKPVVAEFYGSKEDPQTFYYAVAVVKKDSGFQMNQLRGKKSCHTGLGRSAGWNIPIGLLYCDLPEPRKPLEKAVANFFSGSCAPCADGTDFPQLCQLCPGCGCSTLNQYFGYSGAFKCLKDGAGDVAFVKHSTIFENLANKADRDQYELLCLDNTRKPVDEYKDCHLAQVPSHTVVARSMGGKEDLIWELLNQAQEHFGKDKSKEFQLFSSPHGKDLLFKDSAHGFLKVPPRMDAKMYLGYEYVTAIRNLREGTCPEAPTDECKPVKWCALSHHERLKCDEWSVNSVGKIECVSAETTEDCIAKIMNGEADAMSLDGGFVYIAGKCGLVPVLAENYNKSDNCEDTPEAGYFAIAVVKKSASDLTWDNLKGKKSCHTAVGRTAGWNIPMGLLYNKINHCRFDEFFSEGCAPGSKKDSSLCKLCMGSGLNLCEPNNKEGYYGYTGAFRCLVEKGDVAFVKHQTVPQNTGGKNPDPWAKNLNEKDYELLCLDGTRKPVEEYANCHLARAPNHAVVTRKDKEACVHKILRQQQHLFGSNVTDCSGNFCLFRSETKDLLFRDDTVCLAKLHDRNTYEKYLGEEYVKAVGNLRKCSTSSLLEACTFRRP
T3 sequence (P01375 77-233 limits assumed): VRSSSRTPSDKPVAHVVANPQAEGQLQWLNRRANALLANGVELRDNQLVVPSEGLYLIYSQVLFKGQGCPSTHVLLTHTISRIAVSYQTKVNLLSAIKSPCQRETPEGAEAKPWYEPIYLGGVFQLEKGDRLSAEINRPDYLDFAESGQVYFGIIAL

B1: TRF21 (peptide)
peptide: QYHHFMNLKRQGRAQAYGSC
notes: 20-mer ending GSC
Kd [1]: ~60 µM
Rank -- prewash [2]: 5 rank
Rank - non-prewash [3]: 84 rank

B2: TRF24 (peptide)
peptide: SVKPWRPLITGNRWLNSGSC
notes: 20-mer ending GSC
Kd [1]: ~50 µM
Rank -- prewash [2]: 958 rank
Rank - non-prewash [3]: 71 rank

B3: TRF20 (peptide)
peptide: GQTQFAMHRFQQWYKIKGSC
notes: 20-mer ending GSC
Rank -- prewash [2]: 289 rank
Rank - non-prewash [3]: 18 rank

B4: TRF26 (peptide)
peptide: AHKVVPQRQIRHAYNRYGSC
notes: 20-mer ending GSC; also called TRF26 Lead Peptide
Kd [1]: ~100 µM
Binding ΔG [4]: -5.56 kcal/mol
Kd [4]: 85 µM
Rank -- prewash [2]: 436 rank
Rank - non-prewash [3]: 596 rank

B5: TRF25 (peptide)
peptide: APYAPQQIHYWSTLGFKGSC
notes: 20-mer ending GSC
Kd [1]: ~60 µM
Rank -- prewash [2]: 603 rank
Rank - non-prewash [3]: 736 rank

B6: BP2 variant EGEITEGKGSKKGSC (peptide)
peptide: EGEITEGKGSKKGSC
notes: Synthesised in situ on a light-directed array
Fold Enhancement [5]: 9.87 fold

B7: BP2 variant EGEITEGKLSKKGSC (peptide)
peptide: EGEITEGKLSKKGSC
Fold Enhancement [5]: 9.72 fold

B8: TRF22 (peptide)
peptide: HAYKGPGDMRRFNHSGMGSC
notes: 20-mer ending GSC
Rank -- prewash [2]: 61 rank
Rank - non-prewash [3]: 711 rank

B9: TRF27 (peptide)
peptide: LDPLFNTSIMVNWHRWMGSC
Rank -- prewash [2]: 3320 rank
Rank - non-prewash [3]: 1290 rank

B10: TRF23 (peptide)
peptide: FRGWAHIFFGPHVIYRGGSC
notes: 20-mer ending GSC
Kd [1]: ~50 µM
Rank -- prewash [2]: 2090 rank
Rank - non-prewash [3]: 2720 rank

B11: TNF1 D4S+P5Y+M7K triple mutant (peptide)
peptide: FERSYLKMPWSFLQSRQGSC
Kd Fold-Change Relative to Lead [6]: 11 fold
Kd [7]: 14 µM
Observed Binding ΔG [7]: -6.63 kcal/mol

B12: TNF1 P5Y+M7K double mutant (peptide)
peptide: FERDYLKMPWSFLQSRQGSC
Kd Fold-Change Relative to Lead [6]: 5.8 fold
Kd [7]: 27 µM
Observed Binding ΔG [7]: -6.24 kcal/mol

B13: TNF1 D4Y point-mutant (peptide)
peptide: FERYPLMMPWSFLQSRQGSC
Kd Fold-Change Relative to Lead [8]: 3.6 fold
Component Binding ΔG Contribution [9]: -0.74 kcal/mol
fold enhancement in SPR binding response relative to TNF1 [10]: ≥ 15 fold
Binding ΔG [11]: -5.95 kcal/mol
Kd [11]: 44 µM

B14: TNF1 D4Y+M7K double mutant (peptide)
peptide: FERYPLKMPWSFLQSRQGSC
Kd Fold-Change Relative to Lead [6]: 9.4 fold
Kd [7]: 17 µM
Observed Binding ΔG [7]: -6.54 kcal/mol

B15: TNF1 P5Y+S11K double mutant (peptide)
peptide: FERDYLMMPWKFLQSRQGSC
Kd Fold-Change Relative to Lead [6]: 6.6 fold
Kd [7]: 24 µM
Observed Binding ΔG [7]: -6.63 kcal/mol

B16: TNF1 P5Y point-mutant (peptide)
peptide: FERDYLMMPWSFLQSRQGSC
Kd Fold-Change Relative to Lead [8]: 2.7 fold
Component Binding ΔG Contribution [9]: -0.58 kcal/mol
fold enhancement in SPR binding response relative to TNF1 [10]: ≥ 15 fold
Binding ΔG [11]: -5.79 kcal/mol
Kd [11]: 58 µM

B17: TNF1 M7K point-mutant (peptide)
peptide: FERDPLKMPWSFLQSRQGSC
Kd Fold-Change Relative to Lead [8]: 2.8 fold
Component Binding ΔG Contribution [9]: -0.72 kcal/mol
fold enhancement in SPR binding response relative to TNF1 [10]: ≥ 15 fold
Binding ΔG [11]: -5.93 kcal/mol
Kd [11]: 57 µM

B18: BP2 variant EGEITEGKKSKLGSC (peptide)
peptide: EGEITEGKKSKLGSC
notes: as for B6
Fold Enhancement [5]: 11.1 fold

B19: BP2 variant EGEDTEGKKSKTGSC (peptide)
peptide: EGEDTEGKKSKTGSC
notes: as for B6
Fold Enhancement [5]: 10.2 fold

B20: BP2 variant EGEITEGKKSKTGSC (peptide)
peptide: EGEITEGKKSKTGSC
notes: as for B6
Fold Enhancement [5]: 10.6 fold

B21: BP2 variant EGEITEGKKSKRGSC (peptide)
peptide: EGEITEGKKSKRGSC
notes: as for B6
Fold Enhancement [5]: 10.5 fold

B22: BP2 variant EGEDTEGKKSKLGSC (peptide)
peptide: EGEDTEGKKSKLGSC
notes: as for B6
Fold Enhancement [5]: 10.4 fold

B23: BP2 variant EGEWTEGKKSKLGSC (peptide)
peptide: EGEWTEGKKSKLGSC
notes: as for B6
Fold Enhancement [5]: 10.7 fold

B24: BP2 variant EGEWTEGKKSKEGSC (peptide)
peptide: EGEWTEGKKSKEGSC
notes: as for B6
Fold Enhancement [5]: 10.7 fold

B25: BP2 variant EGEWTEGKKSKIGSC (peptide)
peptide: EGEWTEGKKSKIGSC
notes: as for B6
Fold Enhancement [5]: 10.4 fold

B26: BP2 variant EGEKTEGKKSKEGSC (peptide)
peptide: EGEKTEGKKSKEGSC
notes: as for B6
Fold Enhancement [5]: 9.7 fold

B27: BP2 variant EGEITEGKKSKSGSC (peptide)
peptide: EGEITEGKKSKSGSC
notes: as for B6
Fold Enhancement [5]: 9.91 fold

B28: BP2 variant EGEWTEGKKSKRGSC (peptide)
peptide: EGEWTEGKKSKRGSC
notes: as for B6
Fold Enhancement [5]: 11 fold

B29: BP2 variant EGEDTEGKKSKRGSC (peptide)
peptide: EGEDTEGKKSKRGSC
notes: as for B6
Fold Enhancement [5]: 10.4 fold

B30: BP2 variant EGEKTEGKKSKLGSC (peptide)
peptide: EGEKTEGKKSKLGSC
notes: as for B6
Fold Enhancement [5]: 9.81 fold

B31: BP2 variant EGEDTEGKKSKEGSC (peptide)
peptide: EGEDTEGKKSKEGSC
notes: as for B6
Fold Enhancement [5]: 10.1 fold

B32: BP2 variant EGEWTEGKKSKGGSC (peptide)
peptide: EGEWTEGKKSKGGSC
notes: as for B6
Fold Enhancement [5]: 11.1 fold

B33: BP2 variant EGEITEGKKSKEGSC (peptide)
peptide: EGEITEGKKSKEGSC
notes: as for B6
Fold Enhancement [5]: 10.9 fold

B34: BP2 variant EGEWTEGKKSKTGSC (peptide)
peptide: EGEWTEGKKSKTGSC
notes: as for B6
Fold Enhancement [5]: 10.5 fold

B35: BP2 variant EGEDTEGKKSKIGSC (peptide)
peptide: EGEDTEGKKSKIGSC
notes: as for B6
Fold Enhancement [5]: 10.4 fold

B36: BP2 variant EGEKTEGKKSKTGSC (peptide)
peptide: EGEKTEGKKSKTGSC
notes: as for B6
Fold Enhancement [5]: 8.5 fold

B37: BP2 variant EGEKTEGKKSKGGSC (peptide)
peptide: EGEKTEGKKSKGGSC
notes: as for B6
Fold Enhancement [5]: 9.24 fold

B38: BP2 variant EGEDTEGKKSKGGSC (peptide)
peptide: EGEDTEGKKSKGGSC
notes: as for B6
Fold Enhancement [5]: 10.8 fold

B39: BP2 variant EGEITEGKKSKGGSC (peptide)
peptide: EGEITEGKKSKGGSC
notes: as for B6
Fold Enhancement [5]: 10.8 fold

B40: BP2 variant EGEITEGKKSKIGSC (peptide)
peptide: EGEITEGKKSKIGSC
notes: as for B6
Fold Enhancement [5]: 11.3 fold

B41: TRF19 (peptide)
peptide: KEDNPGYSSEQDYNKLDGSC
notes: 20-mer ending GSC; on arrays attached by the C-terminal Cys
Kd [1]: ~150 µM
Rank -- prewash [2]: 9600 rank
Rank - non-prewash [3]: 5010 rank

B42: TRF28 (peptide)
peptide: RFQLTQHYAQFWGHYTWGSC
notes: 20-mer ending GSC
Rank -- prewash [2]: 712 rank
Rank - non-prewash [3]: 601 rank
